The supplement of paper PMC7877785
± gives the uncertainty stated by the source.

Experiment: self-splicing fitness, log relative to wild type (ln ratio); higher = more splicing; Tetrahymena group I intron in knt gene, E. coli kanamycin selection, DiMSum; sequences stand for … in CUCUCU…GGAGGGAAAAGUUAUCAGGCAUGCACCUGGUAGCUAGUCUUUAAACCAAUAGAUUGCAUCGGUUUAAAAGGCAAGACCGUCAAAUUGCGGGAAAGGGGUCAACAGCCGUUCAGUACCAAGUCUCAGGGGAAACUUUGAGAUGGCCUUGCAAAGGGUAUGGUAAUAAGCUGACGGACAUGGUCCUAACCACGCAGCCAAGUCCUAAGUCAACAGAUCUUCUGUUGAUAUGGAUGCAGUUCACAGACUAAAUGUCGGUCGGGGAAGAUGUAUUCUUCUCAUAAGAUAUAGUCGGACCUCUCCUUAAUGGGAGCUAGCGGAUGAAGUGAUGCAACACUGGAGCCGCUGGGAACUAAUUUGUAUGCGAAAGUAUAUUGAUUAGUUUUGGAGUACUCGUGGUCG
Outline: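 Library with all eight P1ex-region intron nucleotides randomised, intron inside the knt kanamycin-resistance gene on pET-22b(+), in E. coli BL21(DE3). Cells grew overnight at 37°C or 30°C on LB agar with or without 25 μg/mL kanamycin (plus 100 μg/mL carbenicillin, 50 μM IPTG, 0.2% rhamnose), in six replicate transformations. Pooled colonies were amplicon-sequenced on Illumina HiSeq 2500. DiMSum fitness is the error-weighted combination of wild-type-normalised replicate fold changes, kanamycin versus none.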

Sequence	self-splicing fitness (ln) (30 °C)	self-splicing fitness (ln) (37 °C)
UAUAAGCAAUAUUACGUCCG	-0.775 ± 0.11	-0.223 ± 0.15
UAUAAGCAAUAUUACGUGUC	-3.33 ± 0.25	-1.5 ± 0.34
UAUAAGCAAUAUUACGUGUU	-3.24 ± 0.17	-2.22 ± 0.22
UAUAAGCAAUAUUACGUUCA	-0.586 ± 0.09	-0.352 ± 0.14
UAUAAGCAAUAUUACGUUCC	-1.83 ± 0.31	
UAUAAGCAAUAUUACGUUUC	-3.5 ± 0.38	-2.43 ± 0.35
UAUCAGCAAUAUUACGAAAA	-0.436 ± 0.13	-0.123 ± 0.17
UAUCAGCAAUAUUACGAAUC	-3.49 ± 0.26	-0.458 ± 0.14
UAUCAGCAAUAUUACGACGG	-0.775 ± 0.098	0.242 ± 0.13
UAUCAGCAAUAUUACGAGCU	-2.71 ± 0.28	-1.35 ± 0.21
UAUCAGCAAUAUUACGAGUU	-2.58 ± 0.1	-0.829 ± 0.089
UAUCAGCAAUAUUACGAUCG	-0.364 ± 0.095	0.612 ± 0.14
UAUCAGCAAUAUUACGCAGU	-2.62 ± 0.13	-0.577 ± 0.11
UAUCAGCAAUAUUACGCCAC	-3.63 ± 0.48	
UAUCAGCAAUAUUACGCCCU	-0.754 ± 0.11	-0.333 ± 0.14
UAUCAGCAAUAUUACGCGAA	-0.515 ± 0.12	-0.291 ± 0.15
UAUCAGCAAUAUUACGCUAG	-0.545 ± 0.1	-0.149 ± 0.12
UAUCAGCAAUAUUACGCUGU	-3.25 ± 0.2	-2.16 ± 0.15
UAUCAGCAAUAUUACGGAAG	-0.901 ± 0.1	-0.651 ± 0.12
UAUCAGCAAUAUUACGGACU	-0.533 ± 0.058	-0.127 ± 0.071
UAUCAGCAAUAUUACGGUGG	-1.2 ± 0.077	-0.377 ± 0.088
UAUCAGCAAUAUUACGUACG	-0.641 ± 0.087	0.404 ± 0.11
UAUCAGCAAUAUUACGUCAG	-1.42 ± 0.093	-0.143 ± 0.11
UAUCAGCAAUAUUACGUCCA	-0.388 ± 0.12	-0.0388 ± 0.13
UAUCAGCAAUAUUACGUGGC	-4.28 ± 0.36	-2.41 ± 0.27

Sequence	self-splicing fitness (ln) (30 °C)	self-splicing fitness (ln) (37 °C)
UAUCAGCAAUAUUACGUUGU	-3.84 ± 0.19	-2.62 ± 0.21
UAUCAGCAAUAUUACGUUUA	-0.174 ± 0.055	-0.0219 ± 0.069
UAUGAGCAAUAUUACGACGC		-1.38 ± 0.32
UAUGAGCAAUAUUACGACGG	-2.02 ± 0.13	-1.83 ± 0.19
UAUGAGCAAUAUUACGAGCG	-1.32 ± 0.12	-1.26 ± 0.16
UAUGAGCAAUAUUACGAGGA		-1.91 ± 0.27
UAUGAGCAAUAUUACGAGGU		-3.62 ± 0.46
UAUGAGCAAUAUUACGAUUC		-1.6 ± 0.45
UAUGAGCAAUAUUACGCAAG	-2.66 ± 0.24	-1.36 ± 0.23
UAUGAGCAAUAUUACGCACC	-1.68 ± 0.49	-0.807 ± 0.36
UAUGAGCAAUAUUACGCCAU	-2.15 ± 0.2	-2.59 ± 0.3
UAUGAGCAAUAUUACGGAAG	-3.37 ± 0.37	-2.14 ± 0.36
UAUGAGCAAUAUUACGGGUA	-1.86 ± 0.14	-2.05 ± 0.14
UAUGAGCAAUAUUACGGGUC	-3.72 ± 0.23	-2.91 ± 0.25
UAUGAGCAAUAUUACGGGUG	-2.3 ± 0.15	-1.06 ± 0.16
UAUGAGCAAUAUUACGGUAU	-4.03 ± 0.42	-1.06 ± 0.24
UAUGAGCAAUAUUACGUCGU	-3.39 ± 0.3	-2.93 ± 0.32
UAUGAGCAAUAUUACGUGUA	-2.13 ± 0.16	-1.32 ± 0.12
UAUGAGCAAUAUUACGUUAA	-4.12 ± 0.31	-2.59 ± 0.28
UAUGAGCAAUAUUACGUUCU	-3.57 ± 0.29	-2.67 ± 0.34
UAUUAGCAAUAUUACGAAAC		-2.53 ± 0.3
UAUUAGCAAUAUUACGAAGG	-2.18 ± 0.22	-0.523 ± 0.17
UAUUAGCAAUAUUACGAAUC	-3.46 ± 0.23	-0.913 ± 0.2
UAUUAGCAAUAUUACGAAUU	-2.51 ± 0.2	-0.596 ± 0.21
UAUUAGCAAUAUUACGACUG	-0.225 ± 0.16	0.804 ± 0.21

Sequence	self-splicing fitness (ln) (30 °C)	self-splicing fitness (ln) (37 °C)
UAUUAGCAAUAUUACGAUCC	-3.56 ± 0.38	-1.76 ± 0.25
UAUUAGCAAUAUUACGCAGC	-3.88 ± 0.24	-2.56 ± 0.31
UAUUAGCAAUAUUACGCAGU	-2.78 ± 0.28	-2.72 ± 0.26
UAUUAGCAAUAUUACGCCUC		-3.1 ± 0.48
UAUUAGCAAUAUUACGCCUU	-0.78 ± 0.27	-0.885 ± 0.36
UAUUAGCAAUAUUACGCGCC	-1.23 ± 0.4	
UAUUAGCAAUAUUACGCGUG	-0.538 ± 0.055	-0.463 ± 0.065
UAUUAGCAAUAUUACGCUCC	-2.75 ± 0.35	
UAUUAGCAAUAUUACGCUUC	-3.43 ± 0.44	-2.84 ± 0.38
UAUUAGCAAUAUUACGGAAA	-1.81 ± 0.48	-1.98 ± 0.46
UAUUAGCAAUAUUACGGCAC	-1.88 ± 0.21	-0.983 ± 0.35
UAUUAGCAAUAUUACGGGUG	-0.149 ± 0.069	0.0549 ± 0.098
UAUUAGCAAUAUUACGGUAG	-2.42 ± 0.21	-0.417 ± 0.17
UAUUAGCAAUAUUACGUAGC	-2.37 ± 0.22	-1.31 ± 0.27
UAUUAGCAAUAUUACGUCUC	-2.7 ± 0.35	-1.5 ± 0.22
UAUUAGCAAUAUUACGUGAA	-2.17 ± 0.13	-1.87 ± 0.15
UAUUAGCAAUAUUACGUGCA	-0.96 ± 0.16	-0.986 ± 0.16
UAUUAGCAAUAUUACGUGGU	-2.57 ± 0.15	-2.69 ± 0.23
UAUUAGCAAUAUUACGUUAA	-1.91 ± 0.36	-1.53 ± 0.18
UAUUAGCAAUAUUACGUUAU	-2.68 ± 0.19	-2.2 ± 0.22
UAUUAGCAAUAUUACGUUCG	-1.13 ± 0.16	-0.121 ± 0.18
UCAAAGCAAUAUUACGAACU	-3.14 ± 0.19	-1.97 ± 0.23
UCAAAGCAAUAUUACGAAGC	-3.5 ± 0.33	-1.84 ± 0.38
UCAAAGCAAUAUUACGACGG	-0.0455 ± 0.082	0.125 ± 0.12
UCAAAGCAAUAUUACGACUA	-1.14 ± 0.098	-1.03 ± 0.1

Sequence	self-splicing fitness (ln) (30 °C)	self-splicing fitness (ln) (37 °C)
UCAAAGCAAUAUUACGAGCA	-1.07 ± 0.15	-0.556 ± 0.15
UCAAAGCAAUAUUACGAUGC	-2.78 ± 0.15	-0.924 ± 0.15
UCAAAGCAAUAUUACGAUUA	-1.26 ± 0.11	-1.16 ± 0.12
UCAAAGCAAUAUUACGAUUC	-3.67 ± 0.27	-2.63 ± 0.28
UCAAAGCAAUAUUACGCGUG	-1.31 ± 0.057	-0.871 ± 0.066
UCAAAGCAAUAUUACGGAAU	-3.53 ± 0.17	-2.94 ± 0.23
UCAAAGCAAUAUUACGGCGG	-0.543 ± 0.063	-0.0651 ± 0.088
UCAAAGCAAUAUUACGGUCU	-2.68 ± 0.16	-1.58 ± 0.14
UCAAAGCAAUAUUACGUAGG	-1.07 ± 0.072	-0.463 ± 0.096
UCAAAGCAAUAUUACGUCUG	-1.05 ± 0.076	-0.306 ± 0.087
UCAAAGCAAUAUUACGUGUU	-3.06 ± 0.1	-2.8 ± 0.14
UCAAAGCAAUAUUACGUUAC		-2.01 ± 0.12
UCAAAGCAAUAUUACGUUUC	-4.09 ± 0.26	-3.15 ± 0.2
UCACAGCAAUAUUACGAAGC	-3.07 ± 0.21	
UCACAGCAAUAUUACGAGCU	-3.32 ± 0.18	-2.37 ± 0.26
UCACAGCAAUAUUACGAGGC	-2.83 ± 0.14	-2.62 ± 0.16
UCACAGCAAUAUUACGCCCA	-1.47 ± 0.19	0.000225 ± 0.15
UCACAGCAAUAUUACGCCCG	-0.978 ± 0.12	-0.555 ± 0.14
UCACAGCAAUAUUACGCCGC	-3.57 ± 0.22	-2.69 ± 0.19
UCACAGCAAUAUUACGCCUC	-2.06 ± 0.35	
UCACAGCAAUAUUACGCGAA	-1.74 ± 0.086	-0.538 ± 0.091
UCACAGCAAUAUUACGCGGU	-4.02 ± 0.13	-2.63 ± 0.13
UCACAGCAAUAUUACGCUGC	-2.78 ± 0.22	-2.09 ± 0.23
UCACAGCAAUAUUACGGAGU	-4.75 ± 0.33	-3.4 ± 0.23
